Laboratory results as given in patent US9976167B2, “Group of glycosyltransferases and use thereof” (Shanghai Institutes For Biological Sciences, Chinese …, priority 2012, dated 2018).

Legend:
Format in all cases: biochemical
[1] = Glycosyltransfering activities on ginsengenins and saponins: glycosylation site and specificity (summary)
Description: More than 100 predicted cDNA sequences of glycosyltransferases were extracted from the published expression profile data of the Panax plant. 60 cDNAs with full length were cloned, expressed, and subjected to the analysis of glycosyltransfering reaction.
(§1) The lysate supernatant of the recombinant yeasts expressing the empty vector was used as control.
(§2) The reaction was conducted under 35° C. for 12 hrs, then stopped by adding 100 μL of butanol. The product were extracted, dried in vacuum, and dissolved in methanol.
(§3) The glycosyltransfering reactions of ginsenosides and ginsengenins were catalyzed by using the lysis supernatant of the recombinant yeasts expressing 3GT1, 3GT2, 3GT3 and 3GT4 as crude enzymes. The lysis supernatant of recombinant E. coli expressing empty vectors was used as control. The 100 μL reaction system is shown as Table 3. The reaction was conducted under 35° C. for 12 hrs, then stopped by adding 100 μL of butanol. The product were extracted, dried in vacuum, and dissolved in methanol.
(§4) The lysate supernatant of the recombinant yeast expressing empty vectors was used as control. The reaction was conducted under 35° C. for 12 hrs, and then stopped by adding 100 μL of butanol. The product were extracted, dried in vacuum, and dissolved in methanol.
(§5) The glycosyltransfering reactions of ginsenosides Rh2 and F2 were catalyzed by using the lysate supernatant of the recombinant yeasts expressing 3GT1, 3GT2, 3GT3 and 3GT4 as crude enzymes. The 100 μL reaction system is shown as Table 3. The reaction was conducted under 35° C. for 12 hrs, and then stopped by adding 100 μL of butanol. The product were extracted, dried in vacuum, and dissolved in methanol.

[2] = Glycosyltransfering reaction with crude enzyme, substrate F2; details: crude enzyme: lysate supernatant of recombinant yeast; 35° C., 12 hrs; TLC
Description: (§6) According to the method as in Example 4, the cell lysate of recombinant yeasts expressing gGT13 and gGT30 were used to catalyze PPD and PPT.
as §4, §5

[3] = Glycosyltransfering reaction with crude enzyme, substrate Rh2; details: crude enzyme: lysate supernatant of recombinant yeast; 35° C., 12 hrs; TLC
Description: as §1, §2
The reaction products were first detected by thin layer chromatography (TLC). […]
as §4, §5

[4] = Glycosyltransfering reaction with crude enzyme, substrate 25-OH-PPD; details: 35° C., 12 hrs, TLC
Description: as §3

[5] = Glycosyltransfering reaction with crude enzyme, substrate CK; details: 35° C., 12 hrs, TLC
Description: as §6, §3

[6] = Glycosyltransfering reaction with crude enzyme, substrate PPD; details: UDP-glucose, 35° C., 12 hrs, TLC
Description: as §1, §2
(§7) The reaction products were first detected by thin layer chromatography (TLC).
(§8) The converted products of gGT25 were further identified by HPLC (FIG. 10 and FIG. 11). The retention time of peak 2 was identical to that of the CK standard sample; the retention time of peak 3 was identical to that of PPD. […] Peak 1, also present in the profile of the negative control, indicated its irrelevance to the conversion of PPD. 3 peaks were shown in FIG. 11, the retention time of peak 1 was identical to that of F1 standard sample and peak 3 was identical to that of PPT. […] Peak 2, also present in the profile of the negative control, indicated its irrelevance to the conversion of PPT.
as §6
The cell lysis supernatant of the recombinant E. coli was used as crude enzyme to conduct the glycosyltransfering reaction, and the reaction condition was identical to that of Example 4.
The reaction was conducted under 35° C. for 12 hrs. 100 μL of butanol was added to stop the reaction and the products were extracted. Upon vacuum drying, the product was dissolved by methanol. TLC was first used to detect the reaction product.
as §3
The reaction was conducted under 35° C. for 12 hrs, and then stopped by adding 100 μL of butanol. The product were extracted, dried in vacuum, and dissolved in methanol. The reaction products were first detected by thin layer chromatography (TLC) (FIG. 35).

[7] = Glycosyltransfering reaction with crude enzyme, substrate PPT; details: crude enzyme: lysate supernatant of recombinant yeast; UDP-glucose, 35° C., 12 hrs; TLC
Description: as §1, §2, §7, §8, §6, §3

[8] = Glycosyltransfering reaction with crude enzyme, substrate DM; details: crude enzyme: lysate supernatant of recombinant yeast; UDP-glucose, 35° C., 12 hrs; TLC
Description: as §1, §2, §7, §3

[9] = Table 2, tetracyclic triterpenoid substrates
[10] = crude enzyme: lysate supernatant of recombinant E. coli, UDP-glucose

B1: gGT29: glycosyltransferase protein with 442 amino acids, SEQ ID NO.: 26 (protein)
chain: MDNQKGRISIALLPFLAHGHISPFFELAKQLAKRNCNVFLCSTPINLSSIKDKDSSASIKLVELHLPSSPDLPPHYHTTNGLPSHLMLPLRNAFETAGPTFSEILKTLNPDLLIYDFNPSWAPEIASSHNIPAVYFLTTAAASSSIGLHAFKNPGEKYPFPDFYDNSNITPEPPSADNMKLLHDFIACFERSCDIILIKSFRELEGKYIDLLSTLSDKTLVPVGPLVQDPMGHNEDPKTEQIINWLDKRAESTVVFVCFGSEYFLSNEELEEVAIGLEISTVNFIWAVRLIEGEKKGILPEGFVQRVGDRGLVVEGWAPQARILGHSSTGGFVSHCGWSSIAESMKFGVPVIAMARHLDQPLNGKLAAEVGVGMEVVRDENGKYKREGIAEVIRKVVVEKSGEVIRRKARELSEKMKEKGEQEIDRALEELVQICKKKKDEQ
modifications: Panax ginseng; gGT29
glycosylation site: The first glycosyl at C-3 [1, 9]: ✓
extension of C3 of F2 by one more glycosyl (product Rd) [2]: could be extended by one more glycosyl
extension of C3 of Rh2 by one more glycosyl (product Rg3) [3]: could be extended by one more glycosyl

B2: 3GT4: glycosyltransferase protein with 458 amino acids, SEQ ID NO.: 43 (protein)
chain: MEREMLSKTHIMFIPFPAQGHMSPMMQFAKRLAWKGLRITIVLPAQIRDFMQITNPLINTECISFDFDKDDGMPYSMQAYMGVVKLKVTNKLSDLLEKQRTNGYPVNLLVVDSLYPSRVEMCHQLGVKGAPFFTHSCAVGAIYYNARLGKLKIPPEEGLTSVSLPSIPLLGRDDLPIIRTGTFPDLFEHLGNQFSDLDKADWIFFNTFDKLENEEAKWLSSQWPITSIGPLIPSMYLDKQLPNDKDNGINFYKADVGSCIKWLDAKDPGSVVYASFGSVKHNLGDDYMDEVAWGLLHSKYHFIWVVIESERTKLSSDFLAEAEAEEKGLIVSWCPQLQVLSHKSIGSFMTHCGWNSTVEALSLGVPMVALPQQFDQPANAKYIVDVWQIGVRVPIGEEGVVLRGEVANCIKDVMEGEIGDELRGNALKWKGLAVEAMEKGGSSDKNIDEFISKLVSS
modifications: Panax ginseng; 3GT4
glycosylation of C3-OH of 25-OH-PPD (product 3-O-β-(D-glucopyranosyl)-25-OH-PPD) ([4]; crude enzyme of Example 11): could be glycosylated
substrate that could be catalyzed: 25-OH-PPD [4, 10]: ✓
glycosylation of C3-OH of CK (product F2) ([5]; crude enzyme of Example 11): further glycosylating its C3-OH
substrate that could be catalyzed: CK [5, 10]: ✓
glycosylation site: C-3 [1, 9]: ✓
substrate spectrum / specificity ([1]; comparison of 3GT1, 3GT2, 3GT3 and 3GT4, Table 6): best specificity
substrate that could be catalyzed: PPD ([6]; crude enzyme: lysate supernatant of recombinant E. coli): ✓

B3: gGT25-5: glycosyltransferase protein with 472 amino acids, SEQ ID NO.: 20 (protein)
chain: MKSELIFVPVPAFGHLVGMVEMAKLFISRHENLSVTVLISKFFIDTGIDNYNKSLLAKPTPRLTIINLPEIDPQKYLLKPRCAIFPSLIENQKTHVRDVMSRMTQSESTRVVGLLADILFVDIFDIADEFNVPTYVYSPAGAGFLGLAFHLQTLNDDKKQDVTEFRNSDTELLVPSFANPVPAEFLPSIFLEKDGRHDVLLSLYWRCREAKGIIVNTFEELEPYAINSLRMDSMIPPIYPVGPILNLNGEGQNSDEAAVILGWLDDQPPSSVVFLCFGSFGSFPENQVKEIAMGLERSGHRFLWSLRPCISEGETTLQLKYSNLELPAGFLDRTSCVGKVIGWAPQMAILAHEAVGGFVSHCGWNSVLESVWYGMPVATWPMYGEQQLNAFEMVKELGLAVEIEVDYRNEYNKSDFIVKADEIETKIKKLMMDGKNSKIRKKVKEMKEKSRVAMSENGSSYTSLAKLFEEIM
modifications: Panax ginseng; gGT25-5
glycosylation of C6-OH of PPT (product Rg1 or Rh1) [7]: can only glycosylate C6-OH
glycosylation of C20-OH of PPT (product F1) [7]: could not glycosylate the C20-OH
glycosylation site: C6 [1, 9]: ✓
glycosylation of C20-OH of PPD (product CK) ([6]; crude enzyme: lysate supernatant of recombinant yeast): could not glycosylate the C20-OH
glycosylation of C20-OH of DM (product 20-O-β-(D-glucopyranosyl)-dammarendiol II) [8]: could not glycosylate the C20-OH
